In publication PMC10228819, “Changing course: Glucose starvation drives nuclear accumulation of Hexokinase 2 in S. cerevisiae” (PLOS Genetics, 2023):

B1: Recombinant Hxk2, wild type, with C-terminal 6-histidine tag (enzyme, S. cerevisiae)
chain: MVHLGPKKPQARKGSMADVPKELMQQIENFEKIFTVPTETLQAVTKHFISELEKGLSKKGGNIPMIPGWVMDFPTGKESGDFLAIDLGGTNLRVVLVKLGGDRTFDTTQSKYRLPDAMRTTQNPDELWEFIADSLKAFIDEQFPQGISEPIPLGFTFSFPASQNKINEGILQRWTKGFDIPNIENHDVVPMLQKQITKRNIPIEVVALINDTTGTLVASYYTDPETKMGVIFGTGVNGAYYDVCSDIEKLQGKLSDDIPPSAPMAINCEYGSFDNEHVVLPRTKYDITIDEESPRPGQQTFEKMSSGYYLGEILRLALMDMYKQGFIFKNQDLSKFDKPFVMDTSYPARIEEDPFENLEDTDDLFQNEFGINTTVQERKLIRRLSELIGARAARLSVCGIAAICQKRGYKTGHIAADGSVYNRYPGFKEKAANALKDIYGWTQTSLDDYPIKIVPAEDGSGAGAAVIAALAQKRIAEGKSVGIIGA
notes: Hexokinase 2 (Hxk2), S. cerevisiae, cloned into pET14b; also called WT Hxk2; purified Hxk2; source: E. coli, purified (Ni-NTA)

How the values were obtained:
[1] = target: Hxk2 (hexokinase 2, ScHxk2) (UniProt P04807); assay: size exclusion chromatography; conditions: reference: wild type Hxk2, no glucose; sites S15
[2] = target: the molecule itself; assay: SEC; TOSOH G2000 SWXL column on HPLC; 40 μg protein in 50 μl; hexokinase buffer (20 mM HEPES, 5 mM Mg acetate, 100 mM NaCl, 0.5 mM EDTA, 0.5 mM DTT) without glucose, no ATP; 1 mL/min

Row | Molecule | other: SEC elution volume [1] | stoichiometry N [2]
1 | Hxk2 (hexokinase 2, ScHxk2) (from UniProt P04807) Hxk2 S15D, no glucose | lost; reference ~8.8 | 
2 | B1 |  | 2
